Measurements from the supplement of paper PMC10266784.

B1: library; numbered along this chain (parent)
chain: MAAAAAAAAEQQSSNGPVKKSMREKAVERRSVNKEHNSNFKAGYIPIDEDRLHKTGLRGRKGNLAICVIILLFILAVINLIITLVIWAVIRIGPNGCDSMEFHESGLLRFKQVSDMGVIHPLYKSTVGGRRNENLVITGNNQPIVFQQGTTKLSVENNKTSITSDIGMQFFDPRTQNILFSTDYETHEFHLPSGVKSLNVQKASTERITSNATSDLNIKVDGRAIVRGNEGVFIMGKTIEFHMGGNMELKAENSIILNGSVMVSTTRLPSSSSGDQLGSGDWVRYKLCMCADGTLFKVQVTSQNMGCQISDNPCGNTH

Variants of: B1
Assay: SGCB cell-surface expression functional score (HA stain, bin4 vs bin1, normalised to synonymous) (log10 ratio); higher = more cell-surface SGCB (functional)
Summary of the method: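 The functional score is a log ratio of variant frequency in the highest versus the lowest intensity bin, expressed as a median over codons and duplicate transductions. Codon-saturation libraries of HA-tagged, YFP-fused human beta-sarcoglycan were transduced by lentivirus at MOI <0.1 into HEK293 cells stably expressing alpha-, gamma- and delta-sarcoglycan, and the cells were stained on ice with Alexa Fluor 647 anti-HA, fixed and sorted into four 5% intensity bins before amplicon sequencing. Synonymous variants were scaled to mean 0, SD 0.5 within each section.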

SGCB cell-surface expression functional score (log10): each site, then its substitutions
I256: C -0.43, K 0.15, D 0.02, R 0.05, A -0.2, L 0.37, G 0.26, P -0.12, S 0.62, N 1.09, W -0.179, F 0.01, Y 0.42, Q -0.26, V 0.31, E 0.36, M 0.29, T 0.37, H 0.01
I255: V 0.07, K -0.13, G -1.03, C 0.39, Y -1.08, L 0.57, N -1.5, A 0.2, D -0.53, F 0.37, S -0.08, M 0.52, R -0.91, E -0.85, P -0.82, T -0.76, Q -0.37, H -1.4, W -1.77
A251: T 0.52, L -1.06, G 0.05, P 0.04, V 0.46, N 0.23, Y -1.33, I -0.87, Q -2.02, K -1.77, W -1.85, R -1.16, S 0.32, H 0.44, M 0
N253: F 0.83, A 0.49, E 0.76, V 0.9, S 0.59, D 0.58, H 0.8, C 0.55, Q 1.07, L 0.96, P -0.52, K 0.46, M -0.117, R 0.29, W 0.29, T 0.39, Y 0.45, I 0, G 0.43
L257: T -0.91, K -0.27, S -1.19, D -0.5, H -0.81, F 0.54, V 0.45, C -0.27, I 0.12, Y 0.3, W 0.82, M 0, Q -1.3, P -0.89, N -0.61, A -0.23, G -0.1, E -0.43, R -1.52
G259: K -1.06, T 0.55, Q 0.7, S 0.28, H 0.33, E -1.29, M -1.05, W -1.53, V 0.07, I 0.63, C -0.44, Y -1.22, P -0.37, L -0.06, R -0.34, N -0.51, A 0.9, D -1.69, F -0.46
S254: T 0.67, K 0.05, L 0.74, R 0.12, I 0.12, P -0.77, W 0.38, C 0.55, G 0.08, M 0.79, H 0.41, V 0.02, N 0.66, D -0.152, Q 0.92, E 1.37, Y 0.7, A 0.25, F 0.96
N258: R 0.61, Q 0.63, W 0, D 0.39, H 0.33, V 0.3, F -0.09, G 0.43, K 0.55, C 0.74, E 0, M 0.62, Y 0.03, I -0.1, S 0.66, P -1.25, L 0.61, T -0.05, A 0.1
E252: F 1.22, R 0.34, M 0.8, T 0.88, W 0.117, Q 0.64, C 0.5, Y 1.05, N 1.08, D -0.26, K 0.57, G 0.39, A 0.53, V 0.88, H 1.12, L 0.88, S 0.51, I 1.01, P 0.32
